Kd data for one sequence are collected here from article PMC10907721.

pKd: −log10 of the molar value.

The target of the data set is T1, Hop1 CBR WT (Saccharomyces cerevisiae) (UniProt P20050).
T1 sequence: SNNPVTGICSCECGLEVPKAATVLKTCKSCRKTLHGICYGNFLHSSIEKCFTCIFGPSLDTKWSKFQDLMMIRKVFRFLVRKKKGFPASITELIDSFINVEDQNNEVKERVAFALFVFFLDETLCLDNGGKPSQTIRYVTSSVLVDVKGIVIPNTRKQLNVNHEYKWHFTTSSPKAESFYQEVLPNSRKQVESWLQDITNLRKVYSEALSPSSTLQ
Nature of the data set: EMSA. Particulars: EMSA: 20 mM Tris-HCl pH 7.5, 25 mM NaCl, 2 mM beta-mercaptoethanol, 10% glycerol; 50 nM nucleosome or DNA; 15 min room temperature; 6% TBE-acrylamide gel, 0.2X ….

For orientation: pKd means the Kd on a negative log10 scale, so that one unit is a factor of ten. “TGGAGAATCCCGGTGCCGAGGCCGCTCAATTGGTCGTAGACAGCTCTAGCACCGCTTAAACGCACGTACGCGCTGTCCCCCGCGTTTTAACCGCCAAGGGGATTACTCCCTAGTCTCCAGGCACGTGTCAGATATATACATCCTGT (double strand) [Widom 601 mononucleosome (human histones)]” showed a pKd of 6.33.
